According to PMC9463536 (The Journal of Biological Chemistry, 2022):

B1: COP-3 (CpE Obstructing Protein 3), synthetic antigen-binding fragment (Fab, V domains shown)
VH: EVQLVESGGGLVQPGGSLRLSCAASGFNFYSSSIHWVRQAPGKGLEWVAYISSYSGYTYYADSVKGRFTISADTSKNTAYLQMNSLRAEDTAVYYCARGYGYFDYNFSVGYALDYWGQGTLVTVSS
VL: DIQMTQSPSSLSASVGDRVTITCRASQSVSSAVAWYQQKPGKAPKLLIYSASSLYSGVPSRFSGSRSGTDFTLTISSLQPEDFATYYCQQSHPWYYPITFGQGTKVEIK
notes: also called sFab; source: E. coli BL21-Gold, purified (MabSelect SuRe, Resource S)
B2: COP-2 (CpE Obstructing Protein 2), synthetic antigen-binding fragment (Fab, V domains shown)
VH: EVQLVESGGGLVQPGGSLRLSCAASGFNFSSSSIHWVRQAPGKGLEWVASISSYSGYTSYADSVKGRFTISADTSKNTAYLQMNSLRAEDTAVYYCARYWSWYNSSHYIYSALDYWGQGTLVTVSS
VL: DIQMTQSPSSLSASVGDRVTITCRASQSVSSAVAWYQQKPGKAPKLLIYSASSLYSGVPSRFSGSRSGTDFTLTISSLQPEDFATYYCQQSYEWAPVTFGQGTKVEIK
notes: as for B1

Biological target: biotinylated claudin-4–cCpE^1 complex (Homo sapiens claudin-4; Clostridium …, UniProt O14493;P01558, biotin (NHS-PEG4-biotin; sites not stated))
Sequence (O14493 whole entry, chain 1 of 2): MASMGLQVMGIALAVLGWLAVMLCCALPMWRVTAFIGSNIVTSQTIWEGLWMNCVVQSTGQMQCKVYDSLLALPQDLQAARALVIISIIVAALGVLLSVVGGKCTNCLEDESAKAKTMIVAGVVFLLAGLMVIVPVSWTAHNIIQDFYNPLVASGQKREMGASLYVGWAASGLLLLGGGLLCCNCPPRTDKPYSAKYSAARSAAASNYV
Sequence (P01558 197-319, chain 2 of 2): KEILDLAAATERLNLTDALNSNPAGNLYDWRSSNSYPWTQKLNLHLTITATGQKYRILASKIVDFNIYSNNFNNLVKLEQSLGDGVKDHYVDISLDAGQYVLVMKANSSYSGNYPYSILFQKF
Assay: BLI
Conditions: both partners purified

Binder	Kd	koff	kon
B1	200 ± 5.5 nM	0.0039 s⁻¹	19000 M⁻¹ s⁻¹
B2	161.3 ± 0.6 nM	0.0012 s⁻¹	7700 M⁻¹ s⁻¹
